Measurements published in PMC6596994 (Nature, 2019).
Numbering of substitutions follows the chain as printed. Names may count otherwise. Like-named read-outs stand apart in the source and are kept apart here. Ends that are not written are not given here.

T1: human IRF-3 (residue 189–427) (human, UniProt Q14653 189-427)
T1 sequence: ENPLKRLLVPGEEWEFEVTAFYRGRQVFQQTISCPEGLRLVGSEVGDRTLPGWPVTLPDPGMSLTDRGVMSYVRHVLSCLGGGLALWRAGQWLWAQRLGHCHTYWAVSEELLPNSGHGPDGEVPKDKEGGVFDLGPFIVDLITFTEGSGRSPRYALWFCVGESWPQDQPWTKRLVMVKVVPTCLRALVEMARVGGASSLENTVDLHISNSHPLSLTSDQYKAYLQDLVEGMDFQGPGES

T2: human STING CTT (residue 342 to 379, V343W), crystallised (human, UniProt Q86WV6 342-379, V343W)
T2 chain: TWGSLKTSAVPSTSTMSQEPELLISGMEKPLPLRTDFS

B1: hSTING (155–379), unphosphorylated (domain or fragment)
chain: VAHGLAWSYYIGYLRLILPELQARIRTYNQHYNNLLRGAVSQRLYILLPLDCGVPDNLSMADPNIRFLDKLPQQTGDHAGIKDRVYSNSIYELLENGQRAGTCVLEYATPLQTLFAMSQYSQAGFSREDRLEQAKLFCRTLEDILADAPESQNNCRLIAYQEPADDSSFSLSQEVLRHLRQEEKEEVTVGSLKTSAVPSTSTMSQEPELLISGMEKPLPLRTDFS
modifications: biotin on the Avi tag
B2: hSTING (155–379) L374A (domain or fragment)
chain: B1 chain with L220A
modifications: biotin on the Avi tag
B3: hSTING (155–379, T376E F378M S379W), biotin-Avi-His6-SUMO fusion (domain or fragment)
chain: B1 chain with T222E, F224M, S225W
modifications: biotin on the Avi tag
B4: Mouse TBK1 (1–657, S172A) (domain or fragment)
chain: MQSTSNHLWLLSDILGQGATANVFRGRHKKTGDLYAVKVFNNISFLRPVDVQMREFEVLKKLNHKNIVKLFAIEEETTTRHKVLIMEFCPCGSLYTVLEEPSNAYGLPESEFLIVLRDVVGGMNHLRENGIVHRDIKPGNIMRVIGEDGQSVYKLTDFGAARELEDDEQFVALYGTEEYLHPDMYERAVLRKDHQKKYGATVDLWSVGVTFYHAATGSLPFRPFEGPRRNKEVMYKIITGKPSGAISGVQKAENGPIDWSGDMPLSCSLSQGLQALLTPVLANILEADQEKCWGFDQFFAETSDVLHRMVIHVFSLQHMTAHKIYIHSYNTAAVFHELVYKQTKIVSSNQELIYEGRRLVLELGRLAQHFPKTTEENPIFVTSREQLNTVGLRYEKISLPKIHPRYDLDGDASMAKAVTGVVCYACRTASTLLLYQELMRKGVRWLVELVKDDYNETVHKKTEVVITLDFCIRNIEKTVKVYEKLMKVNLEAAELGEISDIHTKLLRLSSSQGTIESSLQDISSRLSPGGLLADTWAHQEGTHPRDRNVEKLQVLLNCITEIYYQFKKDKAERRLAYNEEQIHKFDKQKLYYHATKAMSHFSEECVRKYEAFKDKSEEWMRKMLHLRKQLLSLTNQCFDIEEEVSKYQDYTNELQET
B5: hSTING (155–379, T376E) (domain or fragment)
chain: B1 chain with T222E
modifications: biotin on the Avi tag
B6: Human TBK1 (1–657, S172A) (domain or fragment)
chain: MQSTSNHLWLLSDILGQGATANVFRGRHKKTGDLFAIKVFNNISFLRPVDVQMREFEVLKKLNHKNIVKLFAIEEETTTRHKVLIMEFCPCGSLYTVLEEPSNAYGLPESEFLIVLRDVVGGMNHLRENGIVHRDIKPGNIMRVIGEDGQSVYKLTDFGAARELEDDEQFVALYGTEEYLHPDMYERAVLRKDHQKKYGATVDLWSIGVTFYHAATGSLPFRPFEGPRRNKEVMYKIITGKPSGAISGVQKAENGPIDWSGDMPVSCSLSRGLQVLLTPVLANILEADQEKCWGFDQFFAETSDILHRMVIHVFSLQQMTAHKIYIHSYNTATIFHELVYKQTKIISSNQELIYEGRRLVLEPGRLAQHFPKTTEENPIFVVSREPLNTIGLIYEKISLPKVHPRYDLDGDASMAKAITGVVCYACRIASTLLLYQELMRKGIRWLIELIKDDYNETVHKKTEVVITLDFCIRNIEKTVKVYEKLMKINLEAAELGEISDIHTKLLRLSSSQGTIETSLQDIDSRLSPGGSLADAWAHQEGTHPKDRNVEKLQVLLNCMTEIYYQFKKDKAERRLAYNEEQIHKFDKQKLYYHATKAMTHFTDECVKKYEAFLNKSEEWIRKMLHLRKQLLSLTNQCFDIEEEVSKYQEYTNELQET

How the values were obtained:
[1] = biological target: p-hSTING (155–379) (human) (UniProt Q86WV6); assay: SPR
[2] = biological target: B6; assay: SPR
[3] = biological target: B4; assay: SPR
[4] = biological target: B6; assay: SPR; remark: listed apart in the source
[5] = biological target: B4; assay: SPR; remark: listed apart in the source
[6] = biological target: T1, human IRF-3 (residue 189–427); assay: SPR
[7] = biological target: the molecule itself; assay: crystal structure
[8] = biological target: T2, human STING CTT (residue 342 to 379, …); assay: crystal structure
[9] = biological target: hSTING (155–379) P373A (human, UniProt Q86WV6 155-379, P373A, biotin on the Avi tag); assay: SPR
[10] = biological target: hSTING (155–379) L372A (human, UniProt Q86WV6 155-379, L372A, biotin on the Avi tag); assay: SPR

With “human TBK1 K584A (from UniProt Q9UHD2 1-657) (domain or fragment)” the fold reduction of the binding affinity against wild type TBK1 [1] was 20 fold.

With “human TBK1 Q581A (from UniProt Q9UHD2 1-657) (domain or fragment)” the fold reduction of the binding affinity against wild type TBK1 [1] was 20 fold.

Molecule B1 has a Kd [2] of about 290 µM, a Kd [3] of about 170 µM and a Kd [4] of about 230 µM. It also gave a Kd [5] of about 260 µM.

B2: binds [6].

For B3, the Kd [2] was 1.4 µM and the Kd [3] was 1.2 µM.

Molecule TWGSLKTSAVPSTSTMSQEPELLISGMEKPLPLRTDFS [p-hSTING (342–379)] has a Kd [2] of 16.8 µM and a Kd [3] of 15.3 µM.

STSTMSQEPELLISGMEKPLPLRTDFS [p-hSTING (353–379)] gave a Kd [2] of 22.6 µM and a Kd [3] of 25.1 µM.

In the case of B4, the “stoichiometry N” value [7] is reported as 2 and the “stoichiometry N” value [8] is reported as 1 TBK1 chain per STING peptide (2:2).

Molecule SGMEKPLPLREDWF (also: biotin on the Avi tag) [hSTING (366–379, T376E F378W S379F)] has a Kd [3] of 27.1 µM.

Molecule SGMEKPLPLREDWI (also: biotin on the Avi tag) [hSTING (366–379, T376E F378W S379I)] has a Kd [3] of about 59 µM.

Molecule B5 has a Kd [3] of about 62 µM.

SGMEKPLPLREDWM (also: biotin on the Avi tag) [hSTING (366–379, T376E F378W 3379M)] was tested, and the Kd [3] was 43.9 µM.

For SGMEKPLPLREDWE (also: biotin on the Avi tag) [hSTING (366–379, T376E F378W S379E)], the Kd [3] was about 127 µM.

SGMEKPLPLRTDFS [p-hSTING (366–379)] was tested, and the Kd [2] was 35.6 µM and the Kd [3] was 30.8 µM.

For B6, the “fold reduction of the binding affinity against wild type STING” value [9] was about 10 fold and the “fold reduction of the binding affinity against wild type STING” value [10] was about 10 fold.
